Laboratory results published in PMC9482650, “Quantitative fragmentomics allow affinity mapping of interactomes” (Nature Communications, 2022).

molecular target: Q92614; experiment: holdup assay; set-up: key: below the threshold = too weak to quantify, mostly under pKd 3.1 to 4; conditions: plain residues with an end cap or a label only (N-terminal biotin on a linker: ttds)

Row | Binder | pKd
1 | RLPKIKETTV [FRMPD4, Q14CM0] | below the threshold
2 | QRQARSETLV [HPV59-E6, Q81964] | below the threshold
3 | RPLPRKVSQL [DOCK4, Q8N1I0] | below the threshold
4 | RHTTSTETAV [HPV30-E6, P36809] | below the threshold

molecular target: O75970; experiment: holdup assay; set-up: key: below the threshold = too weak to quantify, mostly under pKd 3.1 to 4; conditions: plain residues with an end cap or a label only (N-terminal biotin on a linker: ttds)

Row | Binder | pKd
5 | RLPKIKETTV [FRMPD4, Q14CM0] | below the threshold
6 | QRQARSETLV [HPV59-E6, Q81964] | below the threshold
7 | RPLPRKVSQL [DOCK4, Q8N1I0] | below the threshold
8 | RHTTSTETAV [HPV30-E6, P36809] | below the threshold

molecular target: Q9NPB6; experiment: holdup assay; set-up: key: below the threshold = too weak to quantify, mostly under pKd 3.1 to 4; conditions: plain residues with an end cap or a label only (N-terminal biotin on a linker: ttds)

Row | Binder | pKd
9 | RLPKIKETTV [FRMPD4, Q14CM0] | below the threshold
10 | QRQARSETLV [HPV59-E6, Q81964] | below the threshold
11 | RPLPRKVSQL [DOCK4, Q8N1I0] | below the threshold
12 | RHTTSTETAV [HPV30-E6, P36809] | below the threshold

molecular target: Q70Z35; experiment: holdup assay; set-up: key: below the threshold = too weak to quantify, mostly under pKd 3.1 to 4; conditions: plain residues with an end cap or a label only (N-terminal biotin on a linker: ttds)

Row | Binder | pKd
13 | RLPKIKETTV [FRMPD4, Q14CM0] | below the threshold
14 | QRQARSETLV [HPV59-E6, Q81964] | below the threshold
15 | RPLPRKVSQL [DOCK4, Q8N1I0] | below the threshold
16 | RHTTSTETAV [HPV30-E6, P36809] | below the threshold

molecular target: O15021; experiment: holdup assay; set-up: key: below the threshold = too weak to quantify, mostly under pKd 3.1 to 4; conditions: plain residues with an end cap or a label only (N-terminal biotin on a linker: ttds)

Row | Binder | pKd
17 | RLPKIKETTV [FRMPD4, Q14CM0] | below the threshold
18 | QRQARSETLV [HPV59-E6, Q81964] | below the threshold
19 | RPLPRKVSQL [DOCK4, Q8N1I0] | below the threshold
20 | RHTTSTETAV [HPV30-E6, P36809] | below the threshold

molecular target: Q6ZWJ1; experiment: holdup assay; set-up: key: below the threshold = too weak to quantify, mostly under pKd 3.1 to 4; conditions: plain residues with an end cap or a label only (N-terminal biotin on a linker: ttds)

Row | Binder | pKd
21 | RLPKIKETTV [FRMPD4, Q14CM0] | below the threshold
22 | QRQARSETLV [HPV59-E6, Q81964] | below the threshold
23 | RPLPRKVSQL [DOCK4, Q8N1I0] | below the threshold
24 | RHTTSTETAV [HPV30-E6, P36809] | below the threshold

molecular target: O43166; experiment: holdup assay; set-up: key: below the threshold = too weak to quantify, mostly under pKd 3.1 to 4; conditions: plain residues with an end cap or a label only (N-terminal biotin on a linker: ttds)

Row | Binder | pKd
25 | RLPKIKETTV [FRMPD4, Q14CM0] | below the threshold
26 | QRQARSETLV [HPV59-E6, Q81964] | below the threshold
27 | RPLPRKVSQL [DOCK4, Q8N1I0] | below the threshold
28 | RHTTSTETAV [HPV30-E6, P36809] | below the threshold

molecular target: Q9P227; experiment: holdup assay; set-up: key: below the threshold = too weak to quantify, mostly under pKd 3.1 to 4; conditions: plain residues with an end cap or a label only (N-terminal biotin on a linker: ttds)

Row | Binder | pKd
29 | RLPKIKETTV [FRMPD4, Q14CM0] | below the threshold
30 | QRQARSETLV [HPV59-E6, Q81964] | below the threshold
31 | RPLPRKVSQL [DOCK4, Q8N1I0] | below the threshold
32 | RHTTSTETAV [HPV30-E6, P36809] | below the threshold

molecular target: Q5TCQ9; experiment: holdup assay; set-up: key: below the threshold = too weak to quantify, mostly under pKd 3.1 to 4; conditions: plain residues with an end cap or a label only (N-terminal biotin on a linker: ttds)

Row | Binder | pKd
33 | RLPKIKETTV [FRMPD4, Q14CM0] | below the threshold
34 | QRQARSETLV [HPV59-E6, Q81964] | below the threshold
35 | RPLPRKVSQL [DOCK4, Q8N1I0] | below the threshold
36 | RHTTSTETAV [HPV30-E6, P36809] | below the threshold

molecular target: Q9NR12; experiment: holdup assay; set-up: key: below the threshold = too weak to quantify, mostly under pKd 3.1 to 4; conditions: plain residues with an end cap or a label only (N-terminal biotin on a linker: ttds)

Row | Binder | pKd
37 | RLPKIKETTV [FRMPD4, Q14CM0] | below the threshold
38 | QRQARSETLV [HPV59-E6, Q81964] | below the threshold
39 | RPLPRKVSQL [DOCK4, Q8N1I0] | below the threshold
40 | RHTTSTETAV [HPV30-E6, P36809] | below the threshold

molecular target: Q96FS4; experiment: holdup assay; set-up: key: below the threshold = too weak to quantify, mostly under pKd 3.1 to 4; conditions: plain residues with an end cap or a label only (N-terminal biotin on a linker: ttds)

Row | Binder | pKd
41 | RLPKIKETTV [FRMPD4, Q14CM0] | below the threshold
42 | QRQARSETLV [HPV59-E6, Q81964] | below the threshold
43 | RPLPRKVSQL [DOCK4, Q8N1I0] | below the threshold
44 | RHTTSTETAV [HPV30-E6, P36809] | below the threshold

molecular target: Q13009; experiment: holdup assay; set-up: key: below the threshold = too weak to quantify, mostly under pKd 3.1 to 4; conditions: plain residues with an end cap or a label only (N-terminal biotin on a linker: ttds)

Row | Binder | pKd
45 | RLPKIKETTV [FRMPD4, Q14CM0] | below the threshold
46 | QRQARSETLV [HPV59-E6, Q81964] | below the threshold
47 | RPLPRKVSQL [DOCK4, Q8N1I0] | below the threshold
48 | RHTTSTETAV [HPV30-E6, P36809] | below the threshold

molecular target: Q9UDY2; experiment: holdup assay; set-up: key: below the threshold = too weak to quantify, mostly under pKd 3.1 to 4; conditions: plain residues with an end cap or a label only (N-terminal biotin on a linker: ttds)

Row | Binder | pKd
49 | RLPKIKETTV [FRMPD4, Q14CM0] | below the threshold
50 | QRQARSETLV [HPV59-E6, Q81964] | below the threshold
51 | RPLPRKVSQL [DOCK4, Q8N1I0] | below the threshold
52 | RHTTSTETAV [HPV30-E6, P36809] | below the threshold

molecular target: Q96JB8; experiment: holdup assay; set-up: key: below the threshold = too weak to quantify, mostly under pKd 3.1 to 4; conditions: plain residues with an end cap or a label only (N-terminal biotin on a linker: ttds)

Row | Binder | pKd
53 | RLPKIKETTV [FRMPD4, Q14CM0] | below the threshold
54 | QRQARSETLV [HPV59-E6, Q81964] | below the threshold
55 | RPLPRKVSQL [DOCK4, Q8N1I0] | below the threshold
56 | RHTTSTETAV [HPV30-E6, P36809] | below the threshold

molecular target: O00560; experiment: holdup assay; set-up: key: below the threshold = too weak to quantify, mostly under pKd 3.1 to 4; conditions: plain residues with an end cap or a label only (N-terminal biotin on a linker: ttds)

Row | Binder | pKd
57 | RLPKIKETTV [FRMPD4, Q14CM0] | below the threshold
58 | QRQARSETLV [HPV59-E6, Q81964] | below the threshold
59 | RPLPRKVSQL [DOCK4, Q8N1I0] | below the threshold
60 | RHTTSTETAV [HPV30-E6, P36809] | below the threshold

molecular target: Q9H190; experiment: holdup assay; set-up: key: below the threshold = too weak to quantify, mostly under pKd 3.1 to 4; conditions: plain residues with an end cap or a label only (N-terminal biotin on a linker: ttds)

Row | Binder | pKd
61 | RLPKIKETTV [FRMPD4, Q14CM0] | below the threshold
62 | QRQARSETLV [HPV59-E6, Q81964] | below the threshold
63 | RPLPRKVSQL [DOCK4, Q8N1I0] | below the threshold
64 | RHTTSTETAV [HPV30-E6, P36809] | below the threshold

molecular target: Q8TEW0; experiment: holdup assay; set-up: key: below the threshold = too weak to quantify, mostly under pKd 3.1 to 4; conditions: plain residues with an end cap or a label only (N-terminal biotin on a linker: ttds)

Row | Binder | pKd
65 | RLPKIKETTV [FRMPD4, Q14CM0] | below the threshold
66 | QRQARSETLV [HPV59-E6, Q81964] | below the threshold
67 | RPLPRKVSQL [DOCK4, Q8N1I0] | below the threshold
68 | RHTTSTETAV [HPV30-E6, P36809] | below the threshold

molecular target: Q9UMS6; experiment: holdup assay; set-up: key: below the threshold = too weak to quantify, mostly under pKd 3.1 to 4; conditions: plain residues with an end cap or a label only (N-terminal biotin on a linker: ttds)

Row | Binder | pKd
69 | RLPKIKETTV [FRMPD4, Q14CM0] | below the threshold
70 | QRQARSETLV [HPV59-E6, Q81964] | below the threshold
71 | RPLPRKVSQL [DOCK4, Q8N1I0] | below the threshold
72 | RHTTSTETAV [HPV30-E6, P36809] | below the threshold

molecular target: Q13368; experiment: holdup assay; set-up: key: below the threshold = too weak to quantify, mostly under pKd 3.1 to 4; conditions: plain residues with an end cap or a label only (N-terminal biotin on a linker: ttds)

Row | Binder | pKd
73 | RLPKIKETTV [FRMPD4, Q14CM0] | below the threshold
74 | QRQARSETLV [HPV59-E6, Q81964] | below the threshold
75 | RPLPRKVSQL [DOCK4, Q8N1I0] | below the threshold
76 | RHTTSTETAV [HPV30-E6, P36809] | below the threshold

molecular target: Q8IUC4; experiment: holdup assay; set-up: key: below the threshold = too weak to quantify, mostly under pKd 3.1 to 4; conditions: plain residues with an end cap or a label only (N-terminal biotin on a linker: ttds)

Row | Binder | pKd
77 | RLPKIKETTV [FRMPD4, Q14CM0] | below the threshold
78 | QRQARSETLV [HPV59-E6, Q81964] | below the threshold
79 | RPLPRKVSQL [DOCK4, Q8N1I0] | below the threshold
80 | RHTTSTETAV [HPV30-E6, P36809] | below the threshold

molecular target: Q12923; experiment: holdup assay; set-up: key: below the threshold = too weak to quantify, mostly under pKd 3.1 to 4; conditions: plain residues with an end cap or a label only (N-terminal biotin on a linker: ttds)

Row | Binder | pKd
81 | RLPKIKETTV [FRMPD4, Q14CM0] | below the threshold
82 | QRQARSETLV [HPV59-E6, Q81964] | below the threshold
83 | RPLPRKVSQL [DOCK4, Q8N1I0] | below the threshold
84 | RHTTSTETAV [HPV30-E6, P36809] | below the threshold

molecular target: O00233; experiment: holdup assay; set-up: key: below the threshold = too weak to quantify, mostly under pKd 3.1 to 4; conditions: plain residues with an end cap or a label only (N-terminal biotin on a linker: ttds)

Row | Binder | pKd
85 | RLPKIKETTV [FRMPD4, Q14CM0] | below the threshold
86 | QRQARSETLV [HPV59-E6, Q81964] | below the threshold
87 | RPLPRKVSQL [DOCK4, Q8N1I0] | below the threshold
88 | RHTTSTETAV [HPV30-E6, P36809] | below the threshold

molecular target: Q9C0E4; experiment: holdup assay; set-up: key: below the threshold = too weak to quantify, mostly under pKd 3.1 to 4; conditions: plain residues with an end cap or a label only (N-terminal biotin on a linker: ttds)

Row | Binder | pKd
89 | RLPKIKETTV [FRMPD4, Q14CM0] | below the threshold
90 | QRQARSETLV [HPV59-E6, Q81964] | below the threshold
91 | RPLPRKVSQL [DOCK4, Q8N1I0] | below the threshold
92 | RHTTSTETAV [HPV30-E6, P36809] | below the threshold

molecular target: Q96JY6; experiment: holdup assay; set-up: key: below the threshold = too weak to quantify, mostly under pKd 3.1 to 4; conditions: plain residues with an end cap or a label only (N-terminal biotin on a linker: ttds)

Row | Binder | pKd
93 | RLPKIKETTV [FRMPD4, Q14CM0] | below the threshold
94 | QRQARSETLV [HPV59-E6, Q81964] | below the threshold
95 | RPLPRKVSQL [DOCK4, Q8N1I0] | below the threshold
96 | RHTTSTETAV [HPV30-E6, P36809] | below the threshold

molecular target: Q9ULJ8; experiment: holdup assay; set-up: key: below the threshold = too weak to quantify, mostly under pKd 3.1 to 4; conditions: plain residues with an end cap or a label only (N-terminal biotin on a linker: ttds)

Row | Binder | pKd
97 | RLPKIKETTV [FRMPD4, Q14CM0] | below the threshold
98 | QRQARSETLV [HPV59-E6, Q81964] | below the threshold
99 | RPLPRKVSQL [DOCK4, Q8N1I0] | below the threshold
100 | RHTTSTETAV [HPV30-E6, P36809] | below the threshold
